The assay has as its target NaV1.5 C-terminal domain (CTD), purified recombinant (UniProt Q14524 1773-1940). The assay can be described thus: ITC. (In general: In ITC the heat of successive injections is recorded.)

Sequence of NaV1.5 C-terminal domain (CTD), purified recombinant (Q14524 1773-1940): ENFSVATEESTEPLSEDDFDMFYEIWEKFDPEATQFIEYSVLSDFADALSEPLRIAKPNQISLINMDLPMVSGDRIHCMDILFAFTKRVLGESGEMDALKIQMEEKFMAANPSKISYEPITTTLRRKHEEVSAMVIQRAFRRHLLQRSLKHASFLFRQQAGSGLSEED

B1: Q7R-FGF12 (human FGF12-B with Q7R), purified recombinant (natural protein, UniProt P61328-2 1-181, looked up)
chain: MESKEPRLKGIVTRLFSQQGYFLQMHPDGTIDGTKDENSDYTLFNLIPVGLRVVAIQGVKASLYVAMNGEGYLYSSDVFTPECKFKESVFENYYVIYSSTLYRQQESGRAWFLGLNKEGQIMKGNRVKKTKPSSHFVPKPIEVCMYREPSLHEIGEKQGRSRKSSGTPTMNGGKVVNQDST
Consider B1, for which the “fold reduction in binding affinity against WT-FGF12” value turned out to be 2 fold.
